Experiments:
[1] = target: recombinant human CD138 protein (Homo sapiens (Human)., UniProt P18827, biotin (in the bio-layer interferometry experiment only)); assay: BLI
[2] = target: CD3 on T cells (Homo sapiens (endogenous, Jurkat cells …, UniProt P07766)); assay: flow cytometry on cells
Sequence of CD3 on T cells (Homo sapiens (P07766 23-207): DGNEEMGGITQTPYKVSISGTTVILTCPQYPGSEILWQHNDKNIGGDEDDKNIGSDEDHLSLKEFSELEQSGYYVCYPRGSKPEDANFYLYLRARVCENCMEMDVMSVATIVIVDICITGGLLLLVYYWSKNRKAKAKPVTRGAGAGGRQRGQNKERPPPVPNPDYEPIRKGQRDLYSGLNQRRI

Sequence of recombinant human CD138 protein (P18827 23-254): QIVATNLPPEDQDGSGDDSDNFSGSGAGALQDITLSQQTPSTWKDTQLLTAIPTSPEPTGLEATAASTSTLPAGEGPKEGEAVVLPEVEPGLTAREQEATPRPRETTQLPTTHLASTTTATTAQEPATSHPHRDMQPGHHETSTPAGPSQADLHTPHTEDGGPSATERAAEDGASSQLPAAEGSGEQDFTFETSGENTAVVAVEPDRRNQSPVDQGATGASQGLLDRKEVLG

Kd [1]: 13.5 nM
binding result [2]: no binding (tested: 10 μg/mL)
B1: aCD138-ScFv-hIgFc (scFv, V domains shown)
VH: QVQLQQSGSELMMPGASVKISCKATGYTFSNYWIEWVKQRPGHGLEWIGEILPGTGRTIYNEKFKGKATFTADISSNTVQMQLSSLTSEDSAVYYCARRDYYGNFYYAMDYWGQGTSVTVSS
VL: DIQMTQSTSSLSASLGDRVTISCSASQGINNYLNWYQQKPDGTVELLIYYTSTLQSGVPSRFSGSGSGTDYSLTISNLEPEDIGTYYCQQYSKLPRTFGGGTKLEIK

Source: PMC4452151 (Cancer Science, 2015)
